pKd: −log10 of the molar value.
Key:
HLA-A*69:01 = assay: IEDB peptide-MHC binding, purified MHC/competitive/fluorescence; filed as Kd, often an IC50 or EC50 that approximates it; ≥ and ≤ were set here for values at or beyond the usual limits of such assays; conditions: source organism: Escherichia coli B171
HLA-A*29:02 = assay: IEDB peptide-MHC binding, purified MHC/direct/fluorescence; filed as Kd, often an IC50 or EC50 that approximates it; ≥ and ≤ were set here for values at or beyond the usual limits of such assays; conditions: source organism: Escherichia coli O157:H7 str. EC869
HLA-A*26:02 [1] = assay: as above; conditions: source organism: Escherichia coli O157:H7 str. EC869
HLA-A*02:12 = assay: as above; conditions: source organism: Escherichia coli O157:H7 str. EC869
HLA-B*48:01 = assay: as above
HLA-A*02:19 = assay: as above; conditions: source organism: Escherichia coli O157:H7 str. EC869
HLA-B*40:01 = assay: as above; conditions: source organism: Escherichia coli O157:H7
HLA-A*26:03 = assay: as above
HLA-B*51:01 = assay: as above; conditions: source organism: Escherichia coli O157:H7 str. EC869
HLA-A*01:01 = assay: as above
HLA-A*24:03 = assay: as above; conditions: source organism: Escherichia coli O157:H7 str. EC869
HLA-A*02:01 [2] = assay: as above; conditions: source organism: Escherichia coli O157:H7
HLA-B*57:01 = assay: as above
HLA-A*02:50 = assay: as above; conditions: source organism: Escherichia coli O157:H7 str. EC869
HLA-B*44:02 = assay: as above; conditions: source organism: Escherichia coli O157:H7 str. EC869
HLA-A*03:01 = assay: as above; conditions: source organism: Escherichia coli O157:H7
HLA-B*18:01 = assay: as above; conditions: source organism: Escherichia coli O157:H7 str. EC869
HLA-B*15:01 = assay: as above
HLA-B*27:05 = assay: as above
HLA-B*46:01 = assay: as above
HLA-B*07:02 = assay: as above
HLA-B*08:01 [3] = assay: as above; conditions: source organism: Escherichia coli O157:H7 str. EC869
HLA-A*31:01 = assay: as above
HLA-B*58:01 = assay: as above
HLA-B*38:01 = assay: as above; conditions: source organism: Escherichia coli O157:H7 str. EC869
HLA-A*11:01 = assay: as above
HLA-A*26:01 = assay: as above; conditions: source organism: Escherichia coli O157:H7 str. EC869
HLA-A*23:01 = assay: as above; conditions: source organism: Escherichia coli O157:H7 str. EC869
HLA-A*30:02 = assay: IEDB peptide-MHC binding, purified MHC/competitive/radioactivity; filed as Kd, often an IC50 or EC50 that approximates it; ≥ and ≤ were set here for values at or beyond the usual limits of such assays; conditions: source organism: Dengue virus 2 Jamaica/1409/1983
HLA-B*15:02 = assay: IEDB peptide-MHC binding, purified MHC/direct/fluorescence; filed as Kd, often an IC50 or EC50 that approximates it; ≥ and ≤ were set here for values at or beyond the usual limits of such assays
HLA-A*26:02 [4] = assay: IEDB peptide-MHC binding, purified MHC/competitive/fluorescence; filed as Kd, often an IC50 or EC50 that approximates it; ≥ and ≤ were set here for values at or beyond the usual limits of such assays; conditions: source organism: Hepatovirus A
HLA-A*30:01 = assay: as above; conditions: source organism: Hepatovirus A
HLA-B*39:01 = assay: as above; conditions: source organism: Hepatovirus A
HLA-A*02:03 = assay: as above; conditions: source organism: Hepatovirus A
HLA-A*02:01 [5] = assay: as above; conditions: source organism: Hepatovirus A
HLA-B*15:17 = assay: as above; conditions: source organism: Hepatovirus A
HLA-B*15:09 = assay: as above; conditions: source organism: Hepatovirus A
HLA-A*68:02 = assay: as above; conditions: source organism: Hepatovirus A
HLA-B*08:01 [6] = assay: as above; conditions: source organism: Hepatovirus A
HLA-B*35:01 = assay: IEDB peptide-MHC binding, purified MHC/direct/fluorescence; filed as Kd, often an IC50 or EC50 that approximates it; ≥ and ≤ were set here for values at or beyond the usual limits of such assays; conditions: source organism: Hepatovirus A
HLA-C*06:02 = assay: as above; conditions: source organism: Hepatovirus A
HLA-C*12:03 = assay: as above; conditions: source organism: Hepatovirus A
[7] = source organism: Escherichia coli O157:H7
[8] = source organism: Escherichia coli O157:H7 str. EC869

Sequence: ETIGLVRAL
- pKd (HLA-A*69:01): 9.22
- pKd (HLA-A*29:02): ≤ 4.70
- pKd (HLA-A*26:02 [1]): ≥ 9.00
- pKd (HLA-A*02:12): ≤ 4.70
- pKd (HLA-B*48:01; [7]): ≤ 4.70
- pKd (HLA-A*02:19): ≤ 4.70
- pKd (HLA-B*40:01): ≤ 4.70
- pKd (HLA-A*26:03; [8]): ≥ 9.00
- pKd (HLA-B*51:01): ≤ 4.70
- pKd (HLA-A*01:01; [7]): ≤ 4.70
- pKd (HLA-A*24:03): ≤ 4.70
- pKd (HLA-A*02:01 [2]): ≤ 4.70
- pKd (HLA-B*57:01; [8]): ≤ 4.70
- pKd (HLA-A*02:50): ≤ 4.70
- pKd (HLA-B*44:02): ≤ 4.70
- pKd (HLA-A*03:01): ≤ 4.70
- pKd (HLA-B*18:01): ≤ 4.70
- pKd (HLA-B*15:01; [7]): 6.00
- pKd (HLA-B*27:05; [7]): ≤ 4.70
- pKd (HLA-B*46:01; [7]): ≤ 4.70
- pKd (HLA-B*07:02; [7]): ≤ 5.30
- pKd (HLA-B*08:01 [3]): ≤ 4.70
- pKd (HLA-A*31:01; [7]): ≤ 4.70
- pKd (HLA-B*58:01; [7]): ≤ 4.70
- pKd (HLA-B*38:01): ≤ 4.70
- pKd (HLA-A*11:01; [7]): ≤ 4.70
- pKd (HLA-A*26:01): 8.40
- pKd (HLA-A*23:01): ≤ 4.70

Sequence: SQHNYRPGY
- pKd (HLA-A*30:02): 6.11
- pKd (HLA-B*15:02; source organism: Dengue virus): 6.55
- pKd (HLA-B*46:01; source organism: Dengue virus): ≤ 4.70

Sequence: YMYAVSGAL
- pKd (HLA-A*26:02 [4]): 5.34
- pKd (HLA-A*30:01): 5.38
- pKd (HLA-B*39:01): 8.82
- pKd (HLA-A*02:03): 8.80
- pKd (HLA-A*02:01 [5]): 8.43
- pKd (HLA-B*15:17): 6.74
- pKd (HLA-B*15:09): 6.49
- pKd (HLA-A*68:02): 5.67
- pKd (HLA-B*08:01 [6]): 6.08
- pKd (HLA-B*48:01; source organism: Hepatovirus A): 7.81
- pKd (HLA-A*26:03; source organism: Hepatovirus A): ≤ 4.70
- pKd (HLA-A*01:01; source organism: Hepatovirus A): ≤ 4.70
- pKd (HLA-B*35:01): 6.35
- pKd (HLA-C*06:02): ≤ 4.70
- pKd (HLA-C*12:03): 6.64
- pKd (HLA-B*57:01; source organism: Hepatovirus A): ≤ 4.70
- pKd (HLA-B*15:01; source organism: Hepatovirus A): 7.94
- pKd (HLA-B*27:05; source organism: Hepatovirus A): ≤ 4.70
- pKd (HLA-B*15:02; source organism: Hepatovirus A): 8.30
- pKd (HLA-B*46:01; source organism: Hepatovirus A): 5.75
- pKd (HLA-B*07:02; source organism: Hepatovirus A): ≤ 4.70
- pKd (HLA-A*31:01; source organism: Hepatovirus A): ≤ 4.70
- pKd (HLA-B*58:01; source organism: Hepatovirus A): ≤ 4.70
- pKd (HLA-A*11:01; source organism: Hepatovirus A): ≤ 4.70

— the Immune Epitope Database (IEDB)
